Here are results for three substances from publication PMC8633581.

Test [1] concerns the target Gαq/i (chimera between Gαq and Gαi), as used in fluorescence polarisation. The test can be described thus: fluorescence polarisation; direct binding of HTH peptide and Gαq/i; conditions not given.
The target of test [2] is 171L-graft, displayed on yeast (phage T4) (UniProt P00720). Description: flow cytometry on cells; yeast surface titration: yeast displaying the construct, biotinylated Gαq/i 1 nM to 7.5 μM with AlF4-, 1 h on ice, streptavidin-phycoerythrin; 10 mM HEPES pH 8.0, 150 mM NaCl, 10 mM MgCl2, 30 μM AlCl3, 10 mM NaF, 0.1% BSA; one-step isotherm, apparent KD.
The target in test [3] is HTH peptide of PLC-β3 with the mutations I860A and V866W, expressed on the surface of yeast. The test is described as above.
For test [4], the target named is 1EBB-graft, displayed on yeast (Geobacillus stearothermophilus). Described as above.

As for “TAMRA-labeled HTH peptide (I860A) derived from PLC-β3”, the Kd in test [1] was determined as 400 nM.

On to “biotinylated Gαq/i (chimera between Gαq and Gαi, with C-terminal avitag)”, for which the results for the Kd in test [2], in test [3] and in test [4] were 1700 nM, 400 nM and 2000 nM, respectively.

Turning to “soluble HTH peptide of PLC-β3 with the V866W mutation”, in test [1], the Kd was 290 nM and the fold increase of affinity against the original HTH peptide was > 14 fold.
